This note sets out measurements from patent publication US20250230247A1.

Experiment [1] addresses human Dectin-1 expressed on cells (isoform not given) (human) (UniProt Q9BXN2).
For experiment [2], the target named is T1, human Dectin-1 isoform A (human) (UniProt Q9BXN2).
T1 sequence: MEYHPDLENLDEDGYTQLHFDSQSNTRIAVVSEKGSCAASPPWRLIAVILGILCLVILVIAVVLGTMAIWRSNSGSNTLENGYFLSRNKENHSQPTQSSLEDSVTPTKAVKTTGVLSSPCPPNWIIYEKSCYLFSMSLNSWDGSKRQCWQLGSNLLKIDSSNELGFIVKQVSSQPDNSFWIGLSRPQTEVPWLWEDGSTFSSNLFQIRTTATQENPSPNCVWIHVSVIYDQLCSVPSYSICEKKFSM
Nature of the experiment: flow cytometry on HEK293F hDectin-1a FL cells (summary table).

Experiment [3] deals with human Dectin-1 expressed on cells (isoform not given) (human) (UniProt Q9BXN2). Nature of the experiment: flow cytometry on human monocytes.
Experiment [4] shares this target. Nature of the experiment: flow cytometry on human monocytes (summary table).
Experiment [5] concerns the target T1, human Dectin-1 isoform A (human). Nature of the experiment: flow cytometry on HEK293F hDectin-1a FL cells.
Experiment [6] has the same target. Kind of experiment: flow cytometry on HEK-Blue hDectin-1a cells (summary table).
The target is the same in experiment [7]. Nature of the experiment: flow cytometry on HEK-Blue hDectin-1a cells.

B1: commercial anti-Dectin-1 antibody 15E2 (antibody, from a related filing, V domains shown)
VH: QWQLQQSGAELARPGASWKMSCKASGYTFTTYTMHWWKQRPGQGLEWIGYINPSSGYTNYNQKFKDKATLTADKSSSTASMQLSSLTSEDSAWYYCARERAVLVPYAMDYWGQGTSVTVSS
VL: QIVLTQSPAVMSASPGEKWTITCTASSSLSYMHWFQQKPGTSPKLWLYSTSILASGVPTRFSGSGSGTSYSLTISRMEAEDAATYYCQQRSSSPFTFGSGTKLEIK
The molecule B1 displayed an IFNg secretion in PBMC, immobilized antibody (fold change to isotype) in experiment [1] of 1.6. The IL6 secretion in PBMC, immobilized antibody (fold change to isotype) in experiment [1] worked out at 2.6. For the same molecule, in experiment [1], the TNFa secretion in PBMC, immobilized antibody (fold change to isotype) was 3. Also, the EC50 in experiment [2] came out at 1.4 nM; in experiment [3], 0.6 nM; in experiment [4], 0.6 nM; in experiment [5], 1.4 nM; in experiment [6], 1.2 nM; in experiment [7] it was 1.2 nM.
